For one substance, stoichiometry N results are on record in article PMC12691639.

For the assay, the target named is His-K62-HA expressed in E. coli without the eukaryotic N-terminal signal sequence (Saccharomyces paradoxus). The experiment in a line: denaturing SDS-PAGE and western blot (heat- and detergent-resistant oligomers); E. coli membrane fractions treated with urea before boiling with gel loading buffer; high molecular weight complex taken apart into discrete oligomers. (In general: In western blotting, separated proteins are transferred to a membrane and probed.)

The term stoichiometry N denotes the number of molecules, sites or subunits per partner or assembly. “His-K62-HA expressed in E. coli without the eukaryotic N-terminal signal sequence (natural protein)” registered a stoichiometry N greater than 9.
